From PMC6778125, “Cryo-EM structure of the bacterial Ton motor subcomplex ExbB–ExbD provides information on structure and stoichiometry” (Communications Biology, 2019) come the findings set out here.

One data set deals with ExbD (UniProt P0ABV2). Briefly: cryo-EM structure; single particle cryo-EM of the co-expressed, purified full-length ExbB-ExbD complex in lipid nanodiscs (MSP1E3D1, E. coli polar lipid extract); Tris 25 mM pH7.4 NaCl 200 mM; C1 symmetry, 3.3 Å.
Data set [1] concerns the molecule itself. The data set is described as above.

As usually defined, the stoichiometry N is a count of units in the complex or per binding partner. On to “ExbD (from UniProt P0ABV2 1-141) (natural protein)”, for which the stoichiometry N with ExbD amounted to 2.

B1: ExbB (natural protein, UniProt P0ABU7 1-244, looked up)
chain: MGNNLMQTDLSVWGMYQHADIVVKCVMIGLILASVVTWAIFFSKSVEFFNQKRRLKREQQLLAEARSLNQANDIAADFGSKSLSLHLLNEAQNELELSEGSDDNEGIKERTSFRLERRVAAVGRQMGRGNGYLATIGAISPFVGLFGTVWGIMNSFIGIAQTQTTNLAVVAPGIAEALLATAIGLVAAIPAVVIYNVFARQIGGFKAMLGDVAAQVLLLQSRDLDLEASAAAHPVRVAQKLRAG
notes: ExbB, inner membrane subunit of the Ton complex, 244 residues, three TM helices; native exbB, no tag; also called native ExbB; ExbB pentamer; source: reconstituted in lipid nanodiscs (MSP1E3D1, E. coli polar lipid extract)
For the molecule B1, the “stoichiometry N” value in data set [1] was 5.
